Target: HIV-1 BaL envelope glycoprotein gp120 (head of the virion Env spike) (HIV-1 BaL)
Assay: cryo-EM structure; cryoelectron tomography of vitrified AT-2-treated HIV-1 BaL virions in PBS; 300 kV, pixel 5.56 A; spike subvolumes (2,070 kept) aligned, classified into eight classes and averaged with missing-wedge compensation, no symmetry imposed; head and leg regions also aligned and classified separately

In the case of “HIV-1 BaL envelope glycoprotein gp120 (head of the virion Env spike) (natural protein)”, the stoichiometry N is reported as 3.

Reference: paper PMC2577619
